Experimental data taken from publication PMC3057058 (Virology, 2011).

B1: simian virus 40 (SV40) wild-type VP1, in virus-like particles (natural protein)
chain: APTKRKGSCPGAAPKKPKEPVQVPKLVIKGGIEVLGVKTGVDSFTEVECFLNPQMGNPDEHQKGLSKSLAAEKQFTDDSPDKEQLPCYSVARIPLPNINEDLTCGNILMWEAVTVKTEVIGVTAMLNLHSGTQKTHENGAGKPIQGSNFHFFAVGGEPLELQGVLANYRTKYPAQTVTPKNATVDSQQMNTDHKAVLDKDNAYPVECWVPDPSKNENTRYFGTYTGGENVPPVLHITNTATTVLLDEQGVGPLCKADSLYVSAVDICGLFTNTSGTQQWKGLPRYFKITLRKRSVKNPYPISFLLSDLINRRTQRVDGQPMIGMSSQVEEVRVYEDTEELPGDPDMIRYIDEFGQTTTRMQ

What was measured:
[1] = target: avian polyomavirus (APV) major capsid protein VP1 (avian polyomavirus (APV), strain BFDV-5) (UniProt P13891); experiment: negative-stain electron microscopy
[2] = target: avian polyomavirus (APV) major capsid protein VP1 (avian polyomavirus (APV), strain BFDV-5) (UniProt P13891); experiment: cryo-EM structure
cryo-EM structure = target: the molecule itself; experiment: cryo-EM structure

| Molecule | stoichiometry N [1] | stoichiometry N [2] | binding result (cryo-EM structure) |
| --- | --- | --- | --- |
| avian polyomavirus (APV) major capsid protein VP1 (from UniProt P13891 1-343) (natural protein) | 5 | 5 | – |
| B1 | – | – | binds |
